Laboratory results as given in patent US20100196361A1, “Method of inhibition of vascular development using an antibody” (DYAX CORP., priority 2003, published 2010).

Legend:
Tie1 [1] = biological target: Tie1 (Homo sapiens, UniProt P35590); experiment: Immunoprecipitation of Tie1 from HUVEC and platelet lysates; assay type: binding; conditions: for immunoprecipitation of Tie1 from platelets: activated and inactivated platelets
Procedure: The conclusion from this study was that platelets represent a large pool of Tie1 immunoreactivity which could present a problem for development of Tie1 as a therapeutic target. […] Both activated and inactivated platelets were tested. Anti-Tie1 antibodies B2, D11, E3, the goat polyclonal AF619 (R&D) and negative control antibodies anti-FITC and anti-Streptavidin were used. HUVECS were retrieved from culture dishes by trypsinization and platelets were prepared with the platelet GelSep kit (Biocytex, Marseille, France) kit according to the guidelines of the manufacturer. Per immunoprecipitation experiment 3-5×10^6 and 3×10^8 cells platelets were used for each antibody tested. Platelets and cells were washed with PBS and spun down at 1400 rpm for 4 minutes and supernatant was removed. Then cells were lysed in 1 ml lysis buffer containing 50 mM Tris HCL pH 7.5, 150 mM NaCl, 0.5% Deoxycholic acid (DOC) and 0.5% NP-40 for 5 minutes. The lysed cells were spin down for 10 minutes at 14.000 rpm and 5 μg/ml antibody was added to the supernatant and incubated at 4° C. on a rotator. 100 μl/sample protein A beads (Uppsala, Sweden) were washed 3 times with lysis buffer (centrifugation speed: 15 seconds, 2000 rpm) then cell lysates incubated with antibody were added for 30 minutes 4° C. Then beads were washed three times with washing buffer containing 50 mM Tris HCL pH 7.5, 400 mM NaCl, 0.5% DOC, 0.5% NP-40. Finally, beads are spun down and the pellets was resuspended in an equal amount in sample buffer to perform SDS-page and Western blotting. In Western blotting Tie1 was detected with the polyclonal goat anti-Tie1 antibody.
It has been reported that Tie1 is expressed on platelets (Tsiamis et al. (2000) J. Vasc. Res. 37(6):437). The possibility of platelet immunoreactivity with the E3 anti-Tie1 antibody was investigated by FACs analysis and immunoprecipitation studies. […] In addition, the effect of DX-2200 and DX-2210 on platelet agglutination and aggregation was investigated. […]

Tie1 [2] = experiment: Immunohistochemistry of mouse xenograft tumor sections (SW480); assay type: binding; conditions: biotinylated antibody 10 μg/ml, formalin-fixed paraffin sections
Procedure: We determined if antibody E3 binds to mouse endothelial cells in mouse xenographs. Immunohistochemistry was performed with biotinylated E3 IgG1 (a,z allotype) antibody and control antibodies anti-CD31 (endothelial cell specific marker) and anti-PCNA (proliferating cell nuclear antigen). Formalin-fixed tumor tissues from a mouse-xenograph containing SW480 cells (ATCC) were tested for the binding pattern of the human anti-Tie1 antibody E3. 5 μm sections of paraffin embedded tissues were deparaffinized, rehydrated and pretreated with warm the citrate buffer (0.01 M sodium citrate, pH6 at 95° C.) for 45 min. The slides were cooled down in fresh citrate buffer for 20 min and rinsed with distilled water. The slides were hydrogen peroxide treated, (0.3% H2O2 in PBS), and preincubated with PBS, 5% FCS, 5% heat inactivated human serum (HS) for 1 hour. Between antibody incubations slides were washed 3 times 5 minutes in PBS. Biotinylated antibodies E3 and A2-SV were diluted to a concentration of 10 μg/ml in PBS, 10% HS and incubated for 1 hour at RT. Slides were then incubated with an avidin-HRP (Dako) for 30 minutes at room temperature. Staining was detected by AEC (Vector Laboratories, Burlingame) and H2O2. The peroxidase reaction was stopped with water and slides were counter-stained with haematoxylin. The tissues were evaluated for their binding reactivity.

[3] = test system: LEII lung mouse endothelial cell line; experiment: Tube formation by mouse endothelial cell line LEII on […]; assay type: cell-based; conditions: LEII cells on MATRIGEL, 16 to 18 hours
Procedure: In order to assess mouse Tie1 cross-reactivity and biological activity on mouse Tie1, both E3 and germlined E3 were evaluated for their ability to inhibit tube formation in vitro using mouse endothelial cell line (LEII).
LEII lung mouse endothelial cell line (ATCC) was cultured in a T-25 flask in MEM medium with GLUTAMAX™ (Life Technologies Ltd., Paisley, Scotland) supplemented with 10% FCS, and 1% penicillin/streptomycin. During culturing, the cells were kept in a proliferative state by culturing them in a split ratio 1:5 at an approximate density of the monolayer of about 80%. LEII monolayers were treated with trypsin/EDTA (500 μl/dish) at 37° C. for 3 min. Trypsin activity was stopped by adding 3 volumes of complete MEM medium. The cells were carefully scraped, separated by repeated pipetting, and finally washed with PBS.LEII cells were seeded in their culture medium (20-40×103/50 μl/well of a 96-well plate) on a basement membrane (BIOCOAT™ Angiogenesis System; Becton Dickinson). […] The total length of the tube network was then quantified at 40× magnification by the METAVUE™ Software (Universal Imaging Corporation). Results from triplicate wells were expressed as mean vessel area per field ±SEM (relative units). […]

Tie1 (Homo sapiens, UniProt P35590), sequence (P35590 22-1138): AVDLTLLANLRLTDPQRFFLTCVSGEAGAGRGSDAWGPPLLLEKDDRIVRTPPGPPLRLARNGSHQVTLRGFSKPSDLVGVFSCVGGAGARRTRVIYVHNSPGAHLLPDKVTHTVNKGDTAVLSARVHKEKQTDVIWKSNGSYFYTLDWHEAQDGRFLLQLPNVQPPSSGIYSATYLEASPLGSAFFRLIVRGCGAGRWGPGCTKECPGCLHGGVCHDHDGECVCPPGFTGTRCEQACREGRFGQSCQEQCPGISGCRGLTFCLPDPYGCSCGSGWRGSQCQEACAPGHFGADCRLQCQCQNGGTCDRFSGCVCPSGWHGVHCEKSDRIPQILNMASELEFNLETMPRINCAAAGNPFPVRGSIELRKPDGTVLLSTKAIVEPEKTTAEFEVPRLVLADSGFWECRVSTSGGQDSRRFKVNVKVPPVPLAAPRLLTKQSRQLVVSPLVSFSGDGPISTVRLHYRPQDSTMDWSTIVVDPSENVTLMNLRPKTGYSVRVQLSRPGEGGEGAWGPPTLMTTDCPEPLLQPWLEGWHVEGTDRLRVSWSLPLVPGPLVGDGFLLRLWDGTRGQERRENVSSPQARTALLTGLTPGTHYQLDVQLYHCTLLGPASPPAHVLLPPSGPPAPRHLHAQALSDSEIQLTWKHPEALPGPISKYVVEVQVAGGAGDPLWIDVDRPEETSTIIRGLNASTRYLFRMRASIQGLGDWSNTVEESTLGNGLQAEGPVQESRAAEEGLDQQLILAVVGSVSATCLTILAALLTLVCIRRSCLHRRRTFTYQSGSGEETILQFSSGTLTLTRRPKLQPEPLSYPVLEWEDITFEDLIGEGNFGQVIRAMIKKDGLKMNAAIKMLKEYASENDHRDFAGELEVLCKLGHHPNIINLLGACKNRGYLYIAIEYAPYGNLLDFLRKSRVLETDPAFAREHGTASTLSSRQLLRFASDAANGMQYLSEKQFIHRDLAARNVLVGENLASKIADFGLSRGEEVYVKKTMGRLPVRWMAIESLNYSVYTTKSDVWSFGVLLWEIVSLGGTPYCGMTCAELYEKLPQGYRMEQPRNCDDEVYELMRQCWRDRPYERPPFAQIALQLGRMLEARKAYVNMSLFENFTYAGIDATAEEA

Molecule | immunoprecipitation of Tie1 from HUVEC (Tie1 [1]; 5 μg/ml antibody, detection with polyclonal goat anti-Tie1) | immunoprecipitation of Tie1 from platelets (Tie1 [1]) | immunoprecipitation of Tie1 from platelets (Tie1 [1]; listed as DX-2200) | staining pattern in SW480 mouse xenograft sections (Tie1 [2]) | inhibition of tube formation in mouse endothelial cells [3]
E3: human anti-Tie1 antibody from phage Fab library, reformatted as IgG; HC variable SEQ ID NO:114, LC variable SEQ ID NO:116 (antibody, V domains shown, IgG constant regions; Synthetically generated peptide) VH: EVQLLESGGGLVQPGGSLRLSCAASGFTFSMYGMVWVRQAPGKGLEWVSVISPSGGNTGYADSVKGRFTISRDNSKNTLYLQVNSLRAEDTAVYYCARAPRGYSYGYYYWGQGTLVTVSSASTKGPSVFPLAPSSKSTSGG VL: DIQMTQSPLSLSASVGDRVTITCRASQGIGHYLAWYQQKPGKVPKLLIYTASTLQSGVPSRFSGSGSGTDFTLTINSLQPEDVATYYCQQFNSYPHTFGQGTRLDIK | able to immunoprecipitate Tie1 in HUVEC | not in platelets | nor did it immunoprecipitate Tie1 from platelet extracts | consistent with staining of mouse endothelial cell Tie1 | –
DX-2210: E3 antibody in which the light chain has been germlined (antibody, V domains shown) VH: EVQLLESGGGLVQPGGSLRLSCAASGFTFSMYGMVWVRQAPGKGLEWVSVISPSGGNTGYADSVKGRFTISRDNSKNTLYLQVNSLRAEDTAVYYCARAPRGYSYGYYYWGQGTLVTVSSASTKGPSVFPLAPSSKSTSGG VL: DIQMTQSPSSLSASVGDRVTITCRASQGIGHYLAWYQQKPGKVPKLLIYTASTLQSGVPSRFSGSGSGTDFTLTISSLQPEDVATYYCQQFNSYPHTFGQGTRLEIK | – | – | – | – | potent inhibitor of tube formation in mouse endothelial cells
